Experiments:
[1] = biological target: T1, His-DAZL (Mus musculus, UniProt Q64368 1-298); assay: EMSA; heparin, yeast tRNA; EMSA: 1 ug DAZL in 10 ul, 20 mM Tris pH 7.4, 2.5 mM MgCl2, 60 mM KCl, 1 mM DTT, 5% glycerol, RT, then 5 mg/ml heparin + 0.5 mg/ml yeast tRNA; pull-down: 20 mM Tris-HCl pH 7.4, 2.5 mM MgCl2, 120 mM KCl, 1 mM DTT, 5% glycerol, RT, 5 mg/ml heparin; settings: protein: recombinant; tags: His (pET-28a); label: 32P (gel shift)
T1 sequence: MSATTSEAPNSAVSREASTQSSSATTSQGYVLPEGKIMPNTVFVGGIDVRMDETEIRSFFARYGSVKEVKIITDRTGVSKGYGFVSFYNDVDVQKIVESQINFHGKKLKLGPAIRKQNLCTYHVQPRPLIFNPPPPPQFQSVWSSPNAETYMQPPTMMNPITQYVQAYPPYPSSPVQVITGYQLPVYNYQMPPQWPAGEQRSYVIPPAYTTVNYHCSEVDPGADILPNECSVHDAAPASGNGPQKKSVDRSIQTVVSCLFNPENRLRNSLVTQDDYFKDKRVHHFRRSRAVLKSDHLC

[2] = biological target: T1, His-DAZL; assay: competition; cold C_40 1, 5, 10 ng vs labeled CU_40; EMSA: 1 ug DAZL in 10 ul, 20 mM Tris pH 7.4, 2.5 mM MgCl2, 60 mM KCl, 1 mM DTT, 5% glycerol, RT, then 5 mg/ml heparin + 0.5 mg/ml yeast tRNA; pull-down: 20 mM Tris-HCl pH 7.4, 2.5 mM MgCl2, 120 mM KCl, 1 mM DTT, 5% glycerol, RT, 5 mg/ml heparin; settings: protein: recombinant; tags: His (pET-28a)

B1: Dazap1 3'UTR C region (ssRNA)
RNA: AGGGUUUAAAAAACGCCUUCAGCUUUAAUUCAGAAUUUCAGGUUUCUUUUUCUUCUUCCUUUUUUUUCCUUUUUUUGAGAUUAUUUUCUUGAGCCUUUUGUUUUAUGGUAUAUUGUAAACUUUUAUGUUAAAGAAAAAAUAUACAUUUACAAAUUGUGAGAUUUUUAAGAGAAAUUUUCUACAAUGUAUACUGGCUUAUUUUUUAAUUUAAAGCAGGGUUCGGGUG
binding result [1]: binds

AGGUUUCUUUUUCUUCUUCCUUUUUUUUCCUUUUUUUGAG (ssRNA) [CU_40]
binding result [1]: binds

AGGGUUUAAAAAACGCCUUCAGCUUUAAUUCAGAAUUUCAGGU (ssRNA) [C_40]
binding result [2]: no binding

From publication PMC3637229, “Differential Translation of Dazap1 Transcripts during Spermatogenesis”
